Consider nine molecules from article PMC6312923 (Life Science Alliance, 2018).

Data set [1] has as its system free PCNA. Put plainly: Binding of free PCNA to Cdt1 or CRL4^Cdt2 on anti-FLAG beads. On the set-up: species or system human. Particulars: 2 h at 4°C, Western blotting, three independent experiments. The text has this: FLAG-tagged Cdt1 (Cdt1-3FLAG) and CRL4^Cdt2 (Cdt2-3FLAG) were expressed in insect cells and purified on anti-FLAG resin (Fig 5A).
Data set [2] deals with CRL4Cdt2 (WT): Cdt2-3FLAG with Cul4A, DDB1, Rbx1;PCNA (Homo sapiens;Homo sapiens). Put plainly: pull-down (DNA beads, Western blot). Particulars: PCNA preloaded by RFC with ATP; no Cdt1; 408 fmol Cdt2 on […] fmol PCNA trimer; biotin-dT in the second strand; single nick by Nb.BbvCI; HBS: 10 mM Hepes pH 7.4, 0.15 M NaCl, 10 mM MgCl2, 0.2 mM EDTA, 0.05% Tween 20; loading with 2 mM ATP, 37 C 1 h; Cdt1/CRL4Cdt2 binding 4 C 1 h.

Data set [3] concerns Cdt1-3FLAG;PCNA (Homo sapiens;Homo sapiens). Nature of the data set: pull-down (DNA beads, Western blot). The note with it: PCNA preloaded by RFC with ATP; 301 fmol Cdt1 on […] fmol PCNA trimer; biotin-dT in the second strand; single nick by Nb.BbvCI; HBS: 10 mM Hepes pH 7.4, 0.15 M NaCl, 10 mM MgCl2, 0.2 mM EDTA, 0.05% Tween 20; loading with 2 mM ATP, 37 C 1 h; Cdt1/CRL4Cdt2 binding 4 C 1 h.

The target in data set [4] is T1, full-length human PCNA (recombinant, for peptide binding and crystallography) (human, UniProt P12004 1-261).
T1 construct: PCNA, human, full length; also called recombinant PCNA; source: E. coli Bl21 (DE3), purified as described (Hibbert & Sixma, 2012)
T1 sequence (P12004 whole entry): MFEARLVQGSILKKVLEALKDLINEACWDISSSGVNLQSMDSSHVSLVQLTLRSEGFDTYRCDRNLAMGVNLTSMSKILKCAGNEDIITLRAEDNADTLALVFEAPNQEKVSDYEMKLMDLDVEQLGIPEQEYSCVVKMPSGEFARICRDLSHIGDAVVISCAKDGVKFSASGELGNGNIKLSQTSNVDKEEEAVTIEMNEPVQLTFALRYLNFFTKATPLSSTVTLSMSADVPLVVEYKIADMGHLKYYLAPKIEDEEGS
Nature of the data set: fluorescence polarisation; 1 nM labelled peptide mixed with PCNA at 0 to 2 μM; 10 mM Hepes pH 7.5, 125 mM NaCl, 0.5 mM TCEP; non-binding 96-well plates; triplicates. The note with it: both partners purified.

Data set [5] concerns MCF7 cells, DNA-damage (CPD) sites. Nature of the data set: Recruitment of GFP-Cdt2 constructs to DNA-damage sites in MCF7 cells. Format: cell-based, human. Particulars: MCF7, UV-C 50 J/m^2, GFP fusions; two independent experiments. The source says:
Figure 2. The C-terminus of Cdt2 mediates Cdt2 recruitment to sites of damage. (A) A schematic drawing of the domain structure of Cdt2 and constructs used. (B) The C-terminal, but not the N-terminal, part of Cdt2 mediates recruitment to DNA damage sites. MCF7 cells transfected with the indicated plasmids were locally UV-C irradiated (50 J/m^2 through 5 μm pore diameter micropore filters), and recruitment of each Cdt2 construct to sites of damage was examined by staining with α-CPD antibody and GFP signal.
For Western blotting, whole-cell lysates were prepared by lysing cell pellets directly in SDS–PAGE buffer. For immunofluorescence, U2OS or HEK293 cells were fixed in 4% paraformaldehyde (PFA; WAKO) for 10 min, permeabilized in 0.25% (vol/vol) Triton X-100 in PBS, and stained with the indicated antibodies as described previously. […] For cyclobutane pyrimidine dimer (CPDs) staining, MCF7 and HeLa cells were fixed in 4% PFA for 10 min, permeabilized in 0.3% Triton X-100 in PBS, and then incubated in 0.5 N NaOH for 5 min for DNA denaturation before immunofluorescence. Alexa488-conjugated anti-mouse and […] anti-rabbit antibodies were used as secondary antibodies with Hoechst 33258 to visualize DNA. […] Protein levels were analysed by ImageJ software.
We used a method to induce DNA photoproducts within localized areas of the cell nucleus as described in Ishii et al (2010). To perform micropore UV irradiation, cells were cultured on cover slips, washed twice with PBS, and subsequently covered with an isopore polycarbonate membrane filter (Millipore) with a pore size of either 3 or 5 μm in diameter, and irradiated. UV irradiation was achieved using a UV lamp (SUV-16, As One, Japan) with a dose rate of 0.4 J/m^2·s, which was monitored with a UV radiometer (UVX Radiometer, UVP) at 254 nm, or with a UV box equipped with a UV-C lamp monitored with a VLX-3W radiometer (Vilber Lourmat) at 254 nm (CX-254 sensor). The filter was removed and cells were either fixed or cultured for the indicated time before fixation, and processed for immunofluorescence. […]

For data set [6], the system named is PCNA. Nature of the data set: Co-immunoprecipitation of PCNA with FLAG-tagged Cdt2 constructs. Particulars: cross-linked cells, 3FLAG fusions, no UV. Format: cell-based, human. The source says: (§1) Before cell lysate preparation, cells were cross-linked.
(§2) Figure 3. […] HEK293 cells were transfected with plasmids expressing the indicated Cdt2 fused to a C-terminal FLAG tag, cross-linked, and precipitated with anti-FLAG antibodies (arrows). […] The bands in the blank lanes for Cul4A blotting correspond to the cross-reacting bands to pre-stained marker. […] HEK293 cells were transfected with the indicated plasmids and treated as in A. * indicates nonspecific bands derived from IgGs. (C) A schematic drawing of the Cdt2 domain structure highlighting the C-terminal PIP box and a sequence alignment of PIP boxes in various organisms. The alanine-changed PIP box mutant of Cdt2 was shown (PIP-3A) together with Cdt1 PIP box. (D) HEK293 cells were transfected with Cdt2^WT or PIP box mutant (Cdt2^PIP-3A) C-terminally fused to a FLAG tag, treated as in B, and Cdt2 was precipitated with anti-FLAG resin.
(§3) Control or Cdt2-FLAG expressing 293 cells that were UV irradiated (50 J/m^2), or not UV irradiated, or in the middle S phase (5 h after release from aphidicolon arrest) were fixed with 0.02% formaldehyde for 10 min, lysed using 0.1% Triton X-100-containing modified cytoskeleton (mCSK) buffer (10 mM Pipes, pH 7.9, 100 mM NaCl, 300 mM sucrose, 0.1% [vol/vol] Triton X-100, 1 mM phenylmethylsulfonyl fluoride, 10 mM β-glycerophosphate, 1 mMNa3VO4, 10 mM NaF), and then sonicated. After centrifugation (120,000g, Beckman Type 45Ti rotor, for 20 min at 4°C), the supernatants were mixed with anti-FLAG antibody-conjugated magnetic beads (M8823; Sigma-Aldrich) for 1 h at 4°C to obtain immunoprecipitates. The precipitate was washed with ice-cold 0.1% Triton X-100 containing mCSK buffer and subsequently suspended in SDS sample buffer.

The test system of data set [7] is DDB1, Cul4A. Nature of the data set: Co-immunoprecipitation of DDB1 / Cul4A with FLAG-tagged Cdt2 constructs. The class given is cell-based, human. Particulars: anti-FLAG IP, cross-linked cells.
Description: as §1, §2, §3

Where no end group is shown, it is not given here. TAMRA = carboxytetramethylrhodamine

For the molecule “CRL4^Cdt2: E3 ligase complex of Cdt2-3FLAG, DDB1, HA-Cul4, His-myc-Rbx1, purified from insect cells”, the “binding of free PCNA to protein beads” value in data set [1] is “much less”. Molecule “ncDNA beads (singly nicked circular pBluescript II KS(-))” gave a binding signal (Cdt2 per PCNA trimer) in data set [2] of 2.57. This molecule also returned a binding signal (Cdt1 per PCNA trimer) in data set [3] of 2.04.

B1: Cdt1^PIP-TAMRA (1–14) (peptide)
peptide: MEQRRVTDFFARRR
modifications: also: TAMRA label, position not given here
notes: Cdt1 N-terminal PIP box peptide, residues 1-14; also called Cdt1 PIP box peptide; source: synthetic peptide (in-house Fmoc synthesis)
For B1, the Kd in data set [4] stood at 7200 ± 200 nM.

B2: Cdt2^390–730: C-terminal Cdt2 construct (protein)
chain: LNRGLEEKPGGDKLSTVGWASQKKKESRPGLVTVTSSQSTPAKAPRAKCNPSNSSPSSAACAPSCAGDLPLPSNTPTFSIKTSPAKARSPINRRGSVSSVSPKPPSSFKMSIRNWVTRTPSSSPPITPPASETKIMSPRKALIPVSQKSSQAEACSESRNRVKRRLDSSCLESVKQKCVKSCNCVTELDGQVENLHLDLCCLAGNQEDLSKDSLGPTKSSKIEGAGTSISEPPSPISPYASESCGTLPLPLRPCGEGSEMVGKENSSPENKNWLLAMAAKRKAENPSPRSPSSQTPNSRRQSGKKLPSPVTITPSSMRKICTYFHRKSQEDFCGPEHSTEL
modifications: left off: 3FLAG, N-terminal, kept | 3NLS, N-terminal, state not stated | myc, N-terminal, state not stated
notes: C-terminal Cdt2 construct
Turning to B2, the “recruitment to DNA-damage sites” value in data set [5] is “efficiently recruited to DNA-damage sites”. For the same molecule, the “interaction with PCNA (anti-FLAG IP)” value in data set [6] is “still binds to PCNA”. Further, the “binding to DDB1 (and Cul4A)” value in data set [7] is “lost its ability to bind DDB1”.

B3: Cdt2^PIP-TAMRA (704–717) (peptide)
peptide: {TAMRA}-SSMRKICTYFHRKS
notes: human Cdt2 PIP box, residues 704-717; also called Cdt2 PIP box peptide; source: synthetic peptide (in-house Fmoc synthesis)
Turning to B3, the Kd in data set [4] was found to be 57 ± 3 nM.

B4: Cdt2^600–730: C-terminal 130 amino acids of Cdt2 (protein)
chain: KDSLGPTKSSKIEGAGTSISEPPSPISPYASESCGTLPLPLRPCGEGSEMVGKENSSPENKNWLLAMAAKRKAENPSPRSPSSQTPNSRRQSGKKLPSPVTITPSSMRKICTYFHRKSQEDFCGPEHSTEL
modifications: left off: 3FLAG, N-terminal, kept | 3NLS, N-terminal, state not stated | myc, N-terminal, state not stated
notes: C-terminal 130 amino acids of Cdt2
In the case of B4, in data set [6], the “interaction with PCNA (anti-FLAG IP)” value was “sufficient to mediate the interaction with PCNA”.

B5: Cdt2^1–417: Cdt2 N-terminal WD40 domain construct (protein)
chain: MLFNSVLRQPQLGVLRNGWSSQYPLQSLLTGYQCSGNDEHTSYGETGVPVPPFGCTFSSAPNMEHVLAVANEEGFVRLYNTESQSFRKKCFKEWMAHWNAVFDLAWVPGELKLVTAAGDQTAKFWDVKAGELIGTCKGHQCSLKSVAFSKFEKAVFCTGGRDGNIMVWDTRCNKKDGFYRQVNQISGAHNTSDKQTPSKPKKKQNSKGLAPSVDFQQSVTVVLFQDENTLVSAGAVDGIIKVWDLRKNYTAYRQEPIASKSFLYPGSSTRKLGYSSLILDSTGSTLFANCTDDNIYMFNMTGLKTSPVAIFNGHQNSTFYVKSSLSPDDQFLVSGSSDEAAYIWKVSTPWQPPTVLLGHSQEVTSVCWCPSDFTKIATCSDDNTLKIWRLNRGLEEKPGGDKLSTVGWASQKKKESR
modifications: left off: HA, N-terminal, state not stated | 3FLAG, C-terminal, kept
notes: Cdt2 N-terminal WD40 domain construct
As for B5, the “recruitment to DNA-damage sites” value in data set [5] is reported as “no evidence for recruitment”. For the same molecule, in data set [6], the “interaction with PCNA (anti-FLAG IP)” value was “lost most of its affinity for PCNA”. In data set [7], the “binding to DDB1 (and Cul4A)” value was “still able to bind DDB1”.

B6: Cdt2^1–700: Cdt2 with the C-terminal 30 amino acids deleted (protein)
chain: MLFNSVLRQPQLGVLRNGWSSQYPLQSLLTGYQCSGNDEHTSYGETGVPVPPFGCTFSSAPNMEHVLAVANEEGFVRLYNTESQSFRKKCFKEWMAHWNAVFDLAWVPGELKLVTAAGDQTAKFWDVKAGELIGTCKGHQCSLKSVAFSKFEKAVFCTGGRDGNIMVWDTRCNKKDGFYRQVNQISGAHNTSDKQTPSKPKKKQNSKGLAPSVDFQQSVTVVLFQDENTLVSAGAVDGIIKVWDLRKNYTAYRQEPIASKSFLYPGSSTRKLGYSSLILDSTGSTLFANCTDDNIYMFNMTGLKTSPVAIFNGHQNSTFYVKSSLSPDDQFLVSGSSDEAAYIWKVSTPWQPPTVLLGHSQEVTSVCWCPSDFTKIATCSDDNTLKIWRLNRGLEEKPGGDKLSTVGWASQKKKESRPGLVTVTSSQSTPAKAPRAKCNPSNSSPSSAACAPSCAGDLPLPSNTPTFSIKTSPAKARSPINRRGSVSSVSPKPPSSFKMSIRNWVTRTPSSSPPITPPASETKIMSPRKALIPVSQKSSQAEACSESRNRVKRRLDSSCLESVKQKCVKSCNCVTELDGQVENLHLDLCCLAGNQEDLSKDSLGPTKSSKIEGAGTSISEPPSPISPYASESCGTLPLPLRPCGEGSEMVGKENSSPENKNWLLAMAAKRKAENPSPRSPSSQTPNSRRQSGKKLPSPVT
modifications: left off: HA, N-terminal, state not stated | 3FLAG, C-terminal, kept
notes: Cdt2 with the C-terminal 30 amino acids deleted
Consider B6, for which, in data set [6], the “interaction with PCNA (anti-FLAG IP)” value is on record as “loss of interaction with PCNA”.

As to RRQTSMTDFYHSKR (p21 PIP box peptide) [p21 PIP box peptide], the Kd in data set [4] was 36 ± 2 nM.
